Reference: US20240270860A1

Columns and labels:
Assay in all cases: peptide-array ELISA (CYS.S) [Continued]
[1] = target: T1, 2LS2…2RPGWY2
T1 sequence (peptide, 2 = Cys(ACM)): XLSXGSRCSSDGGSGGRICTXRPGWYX

[2] = target: T2, 2TREQNRI2…
T2 sequence (peptide, 2 = Cys(ACM)): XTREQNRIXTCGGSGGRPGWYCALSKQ

[3] = target: T3, 2…2RPGWY2AL
T3 sequence (peptide, 2 = Cys(ACM)): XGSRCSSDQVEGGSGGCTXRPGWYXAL

[4] = target: T4, 2…2RPGWY2A
T4 sequence (peptide, 2 = Cys(ACM)): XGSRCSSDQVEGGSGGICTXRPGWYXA

[5] = target: T5, 2…2…
T5 sequence (peptide, 2 = Cys(ACM)): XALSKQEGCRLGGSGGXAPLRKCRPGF

[6] = target: T6, 2…
T6 sequence (peptide, 2 = Cys(ACM)): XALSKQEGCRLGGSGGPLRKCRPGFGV

[7] = target: T7, 2…; remark: listed apart in the source
T7 sequence (peptide, 2 = Cys(ACM)): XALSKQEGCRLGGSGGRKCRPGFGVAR

[8] = target: T8, E2LS2…2RPGWY2A
T8 sequence (peptide, 2 = Cys(ACM)): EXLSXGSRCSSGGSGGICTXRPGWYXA

[9] = target: T9, EGCRL2…2…
T9 sequence (peptide, 2 = Cys(ACM)): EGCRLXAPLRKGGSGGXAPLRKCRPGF

[10] = target: T10, EGCRL2…
T10 sequence (peptide, 2 = Cys(ACM)): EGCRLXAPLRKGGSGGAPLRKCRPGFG

[11] = target: T11, EQNRI2…
T11 sequence (peptide, 2 = Cys(ACM)): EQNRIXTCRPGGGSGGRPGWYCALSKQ

[12] = target: T12, KQEGCRL2APLGGSGG2…
T12 sequence (peptide, 2 = Cys(ACM)): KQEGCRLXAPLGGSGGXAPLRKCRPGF

[13] = target: T13, KQEGCRL2…
T13 sequence (peptide, 2 = Cys(ACM)): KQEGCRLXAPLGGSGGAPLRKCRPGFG

[14] = target: T14, KQEGCRL2…; remark: listed apart in the source
T14 sequence (peptide, 2 = Cys(ACM)): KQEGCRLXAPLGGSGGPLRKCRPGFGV

[15] = target: T15, NRI2…
T15 sequence (peptide, 2 = Cys(ACM)): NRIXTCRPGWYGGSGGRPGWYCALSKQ

[16] = target: T16, PE2LS2…2RPGWY2AL
T16 sequence (peptide, 2 = Cys(ACM)): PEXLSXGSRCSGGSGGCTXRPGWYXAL

[17] = target: T17, QEGCRL2…
T17 sequence (peptide, 2 = Cys(ACM)): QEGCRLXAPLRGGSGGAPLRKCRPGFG

[18] = target: T18, QEGCRL2…; remark: listed apart in the source
T18 sequence (peptide, 2 = Cys(ACM)): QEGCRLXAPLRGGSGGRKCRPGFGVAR

[19] = target: T19, REQNRI2…
T19 sequence (peptide, 2 = Cys(ACM)): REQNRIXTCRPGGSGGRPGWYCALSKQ

[20] = target: T20, S2…2RPGWY2
T20 sequence (peptide, 2 = Cys(ACM)): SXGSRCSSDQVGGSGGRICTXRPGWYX

[21] = target: T21, SKQEGCRL2…
T21 sequence (peptide, 2 = Cys(ACM)): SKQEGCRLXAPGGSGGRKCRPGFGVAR

[22] = target: T22, TREQNRI2…
T22 sequence (peptide, 2 = Cys(ACM)): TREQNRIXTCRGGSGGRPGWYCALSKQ

[23] = target: T23, VPE2LS2…2RPGWY2AL
T23 sequence (peptide, 2 = Cys(ACM)): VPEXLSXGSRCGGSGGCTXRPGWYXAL

[24] = target: T24, WY2…
T24 sequence (peptide, 2 = Cys(ACM)): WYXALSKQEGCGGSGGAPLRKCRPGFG

[25] = target: T25, WY2…; remark: listed apart in the source
T25 sequence (peptide, 2 = Cys(ACM)): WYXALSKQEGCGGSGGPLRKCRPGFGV

[26] = target: T26, Y2…
T26 sequence (peptide, 2 = Cys(ACM)): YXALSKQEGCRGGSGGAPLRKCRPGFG

[27] = target: T27, Y2…; remark: listed apart in the source
T27 sequence (peptide, 2 = Cys(ACM)): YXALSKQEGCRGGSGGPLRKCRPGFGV

[28] = target: T28, Y2…; remark: listed apart in the source
T28 sequence (peptide, 2 = Cys(ACM)): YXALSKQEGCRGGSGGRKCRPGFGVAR

[29] = target: T29, …2AGGSGG2…
T29 sequence (peptide, 2 = Cys(ACM)): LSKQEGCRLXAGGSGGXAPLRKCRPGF

[30] = target: T30, …2GGSGG2…
T30 sequence (peptide, 2 = Cys(ACM)): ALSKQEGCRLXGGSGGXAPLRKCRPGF

[31] = target: T31, …2GGSGGCT2RPGWY2AL
T31 sequence (peptide, 2 = Cys(ACM)): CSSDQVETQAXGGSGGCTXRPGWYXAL

[32] = target: T32, …2GGSGGICT2RPGWY2A
T32 sequence (peptide, 2 = Cys(ACM)): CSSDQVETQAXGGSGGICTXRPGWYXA

[33] = target: T33, …2RPGWY2AL
T33 sequence (peptide, 2 = Cys(ACM)): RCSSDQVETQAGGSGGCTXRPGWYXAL

[34] = target: T34, …2RPGWY2A
T34 sequence (peptide, 2 = Cys(ACM)): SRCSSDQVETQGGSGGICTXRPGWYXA

[35] = target: T35, …2RPGWY2
T35 sequence (peptide, 2 = Cys(ACM)): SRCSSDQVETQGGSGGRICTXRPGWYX

[36] = target: T36, …2RPGWY
T36 sequence (peptide, 2 = Cys(ACM)): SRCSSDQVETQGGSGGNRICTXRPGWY

[37] = target: T37, …2…2RPGWY
T37 sequence (peptide, 2 = Cys(ACM)): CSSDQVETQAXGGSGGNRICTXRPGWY

[38] = target: T38, …2…
T38 sequence (peptide, 2 = Cys(ACM)): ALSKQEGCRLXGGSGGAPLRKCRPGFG

[39] = target: T39, …2…; remark: listed apart in the source
T39 sequence (peptide, 2 = Cys(ACM)): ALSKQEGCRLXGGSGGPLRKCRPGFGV

[40] = target: T40, …2…; remark: listed apart in the source
T40 sequence (peptide, 2 = Cys(ACM)): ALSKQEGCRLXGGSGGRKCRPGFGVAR

B1: antagonistic TNFR2 antibody TNFRAB1 (antibody, V domains shown)
VH: EVQLQESGGGLVKPGGSLKLSCAASGFTFSSYVMSWVRQTPEKRLEWVATISSGGSYTYYPDSVKGRFTISRDNAKNTLYLQMSSLRSEDTAMYYCARQRVDGYSSYWYFDVWGAGTAVTVSS
VL: DIVLTQSPAIMSASPGEKVTITCSASSSVYYMYWFQQKPGTSPKLWIYSTSNLASGVPVRFSGSGSGTSYSLTISRMEAEDAATYYCQQRRNYPYTFGGGTKLEIKR
- Raw luminescence data [1]: 436
- Raw luminescence data [2]: 101
- Raw luminescence data [3]: 480
- Raw luminescence data [4]: 402
- Raw luminescence data [5]: 439
- Raw luminescence data [6]: 414
- Raw luminescence data [7]: 443
- Raw luminescence data [8]: 454
- Raw luminescence data [9]: 604
- Raw luminescence data [10]: 312
- Raw luminescence data [11]: 263
- Raw luminescence data [12]: 528
- Raw luminescence data [13]: 242
- Raw luminescence data [14]: 457
- Raw luminescence data [15]: 426
- Raw luminescence data [16]: 697
- Raw luminescence data [17]: 340
- Raw luminescence data [18]: 426
- Raw luminescence data [19]: 228
- Raw luminescence data [20]: 465
- Raw luminescence data [21]: 430
- Raw luminescence data [22]: 188
- Raw luminescence data [23]: 483
- Raw luminescence data [24]: 534
- Raw luminescence data [25]: 341
- Raw luminescence data [26]: 553
- Raw luminescence data [27]: 381
- Raw luminescence data [28]: 463
- Raw luminescence data [29]: 529
- Raw luminescence data [30]: 560
- Raw luminescence data [31]: 265
- Raw luminescence data [32]: 454
- Raw luminescence data [33]: 319
- Raw luminescence data [34]: 388
- Raw luminescence data [35]: 568
- Raw luminescence data [36]: 482
- Raw luminescence data [37]: 487
- Raw luminescence data [38]: 321
- Raw luminescence data [39]: 446
- Raw luminescence data [40]: 455
